Assay results as given in patent publication US20060057623.

Target: HDAC1 (histone deacetylase 1), wild-type (UniProt Q13547)
Sequence (Q13547 whole entry): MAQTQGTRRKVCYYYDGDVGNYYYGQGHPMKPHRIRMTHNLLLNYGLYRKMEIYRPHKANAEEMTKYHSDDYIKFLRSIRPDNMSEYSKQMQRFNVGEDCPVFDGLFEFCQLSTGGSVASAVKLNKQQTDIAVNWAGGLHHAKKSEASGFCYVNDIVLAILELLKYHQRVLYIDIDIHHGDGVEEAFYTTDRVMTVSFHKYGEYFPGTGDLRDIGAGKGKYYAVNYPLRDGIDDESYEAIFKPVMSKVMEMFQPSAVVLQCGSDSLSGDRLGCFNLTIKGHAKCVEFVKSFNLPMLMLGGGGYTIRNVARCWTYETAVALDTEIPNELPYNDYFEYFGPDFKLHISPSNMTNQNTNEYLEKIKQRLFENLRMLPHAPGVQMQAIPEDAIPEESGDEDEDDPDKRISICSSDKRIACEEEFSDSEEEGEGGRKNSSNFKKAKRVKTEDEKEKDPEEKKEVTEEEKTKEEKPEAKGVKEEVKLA

SENP1 catalytically inactive mutant (R630L, K631M)
deacetylase activity of HDAC1 precipitates: expression of SENP1 mutant did not affect HDAC1's deacetylase activity
